Among the data in patent US20180171001A1 are neutralization IC50 values, retold here.

Test in all cases: cell-based or functional assay
Experiment [1] has as its target Env of HIV-1 strain X1254_c3 (HIV-1).
Another experiment deals with Env of MuLV.
In experiment [2] the target is Env of HIV-1 strain H086.8 (HIV-1).
Experiment [3] addresses Env of HIV-1 strain 250-4 (HIV-1).
The target in experiment [4] is Env of HIV-1 strain ZM109F.PB4 (HIV-1).
For experiment [5], the target named is Env of HIV-1 strain REJO4541.67 (HIV-1).
Experiment [6] deals with Env of HIV-1 strain ZM53M.PB12 (HIV-1).
Experiment [7] addresses Env of HIV-1 strain 231965.c1 (HIV-1).
Experiment [8] addresses Env of HIV-1 strain 3415.v1.c1 (HIV-1).
Experiment [9] has as its target Env of HIV-1 strain 3016.v5.c45 (HIV-1).
In experiment [10] the target is Env of HIV-1 strain 3365.v2.c20 (HIV-1).
In experiment [11] the target is Env of HIV-1 strain R1166.c1 (HIV-1).
Experiment [12] concerns the target Env of HIV-1 strain YU2.DG (HIV-1).
In experiment [13] the target is Env of HIV-1 strain Du172.17 (HIV-1).
Experiment [14] addresses Env of HIV-1 strain 251-18 (HIV-1).
The target in experiment [15] is Env of HIV-1 strain PVO.4 (HIV-1).

Substitutions are numbered along the chain they refer to.

B1: γ4κ18 (antibody, V domains shown)
VH: QIHLVQSGTEVKKPGSSVTVSCKAYGVNTFGLYAVNWVRQAPGQSLEYIGQIWRWKSSASHHFRGRVIISAVDLTGSSPPISPLEIKNLTSDDTAVYFCTTTSTSDRWSGLHHDGVMAFSSWGQGTLISVSA
VL: DIQMTQSPSTLSASVGDTVRISCRASQSITGGWLAWYHQRPGKAPRLLIYRGSRLLGGVPSRFSGSAAGADFTLTIANLQAEDFGTFYCQQYDTYPGTFGQGTKVEVKR
As to B1, the neutralization IC50 was 16.2 µg/mL in [1]; > 30 µg/mL with Env of MuLV; > 15 µg/mL in experiment [2]; > 15 µg/mL in experiment [3]; > 15 µg/mL in experiment [4]; > 15 µg/mL in experiment [5]. In addition, the neutralization IC50 in experiment [6], in experiment [7], in experiment [8], in experiment [9], in experiment [10] and in experiment [11] was > 15 µg/mL in each case. Moreover, the neutralization IC50 in experiment [12], in experiment [13], in experiment [14] and in experiment [15] was > 15 µg/mL throughout.

B2: γ20κ19 (antibody, V domains shown)
VH: B1 VH with T19A, H62D, P83S, T101A, S105P, R107Y
VL: B1 VL with A70T, D71G
Consider B2, for which the neutralization IC50 was 2.99 µg/mL in [1]; > 15 µg/mL with Env of MuLV; > 15 µg/mL in experiment [2]; > 15 µg/mL in [3]; > 15 µg/mL in experiment [4]; > 15 µg/mL in experiment [5]. The neutralization IC50 in experiment [6], in [7], in [8], in experiment [9], in experiment [10] and in experiment [11] was > 15 µg/mL throughout. Further, the neutralization IC50 in experiment [12], in experiment [13], in [14] and in experiment [15] was > 15 µg/mL each time.

B3: γ59κ18 (antibody, V domains shown)
VH: B1 VH with S45G, I68L, P83S, L89V, S105Y, R107E, G110D
VL: B1 VL
As for B3, the neutralization IC50 in [1] is 4.07 µg/mL; in the experiment with Env of MuLV, > 15 µg/mL; in [2] it was > 15 µg/mL; in experiment [3], > 15 µg/mL; in experiment [4], > 15 µg/mL; in experiment [5], 1.23 µg/mL. The neutralization IC50 is > 15 µg/mL in experiment [6]; > 15 µg/mL in experiment [7]; > 15 µg/mL in experiment [8]; > 15 µg/mL in [9]; > 15 µg/mL in experiment [10]; 11.7 µg/mL in [11]. For the same molecule, the neutralization IC50 in [12] is 7.71 µg/mL; in experiment [13] it was > 15 µg/mL; in experiment [14], 25 µg/mL; in experiment [15] it was > 15 µg/mL.

B4: γ44κ61 (antibody, V domains shown)
VH: B1 VH with G26E, I68L, P83S, L89V, S105H, R107K
VL: B1 VL with V15I, G32N, L34V, S53A, R54A, A70T, A77G
Take B4: the neutralization IC50 (in experiment [1]; with Env of MuLV; in experiment [2]; in experiment [3]; in [4]; in experiment [5]) was > 15 µg/mL in each case. In addition, the neutralization IC50 in [6], in experiment [7], in experiment [8], in experiment [9], in experiment [10] and in experiment [11] was > 15 µg/mL throughout. For the same molecule, the neutralization IC50 in experiment [12], in experiment [13], in experiment [14] and in experiment [15] was > 15 µg/mL throughout.

B5: γ20κ18 (antibody, V domains shown)
VH: B1 VH with T19A, H62D, P83S, T101A, S105P, R107Y
VL: B1 VL
As for B5, the neutralization IC50 is 5.22 µg/mL in [1]; > 30 µg/mL in the experiment with Env of MuLV; > 15 µg/mL in [2]; > 15 µg/mL in experiment [3]; > 15 µg/mL in experiment [4]; > 15 µg/mL in experiment [5]. The neutralization IC50 in [6] was > 15 µg/mL; in [7] it was > 15 µg/mL; in [8] it was > 15 µg/mL; in experiment [9], > 15 µg/mL; in experiment [10] it was > 15 µg/mL; in experiment [11] it was 20 µg/mL. In addition, the neutralization IC50 in [12], in experiment [13], in experiment [14] and in experiment [15] was > 15 µg/mL each time.

B6: γ23κ18 (antibody, V domains shown)
VH: B1 VH with P83S, R107Y
VL: B1 VL
For the molecule B6, the neutralization IC50 in experiment [1] is 0.545 µg/mL; with Env of MuLV, > 30 µg/mL; in experiment [2] it was > 15 µg/mL; in experiment [3], > 15 µg/mL; in experiment [4], > 15 µg/mL; in [5], 0.061 µg/mL. Further, the neutralization IC50 in [6] is > 15 µg/mL; in experiment [7] it was 0.128 µg/mL; in experiment [8], > 15 µg/mL; in [9], 0.047 µg/mL; in experiment [10], > 15 µg/mL; in experiment [11], 0.708 µg/mL. For the same molecule, the neutralization IC50 stood at 0.117 µg/mL in experiment [12], 2.95 µg/mL in [13], 1.58 µg/mL in [14] and 0.047 µg/mL in experiment [15].

B7: γ15κ61 (antibody, V domains shown)
VH: B1 VH with P83S, T102A, S105Y, R107K
VL: B1 VL with V15I, G32N, L34V, S53A, R54A, A70T, A77G
With B7, the neutralization IC50 in experiment [1] is 10.9 µg/mL; with Env of MuLV, > 15 µg/mL; in [2], > 15 µg/mL; in experiment [3], > 15 µg/mL; in experiment [4], > 15 µg/mL; in experiment [5], 2.03 µg/mL. The neutralization IC50 is > 15 µg/mL in experiment [6]; 5.23 µg/mL in experiment [7]; > 15 µg/mL in experiment [8]; 1.21 µg/mL in experiment [9]; > 15 µg/mL in [10]; 6.55 µg/mL in [11]. Besides, the neutralization IC50 in experiment [12] was 3.44 µg/mL; in experiment [13] it was > 15 µg/mL; in [14], 4.66 µg/mL; in experiment [15], 1.23 µg/mL.

B8: γ52κ18 (antibody, V domains shown)
VH: B1 VH with I68L, P83S, S105Y
VL: B1 VL
Take B8: the neutralization IC50 is 1.57 µg/mL in [1]; > 15 µg/mL in the experiment with Env of MuLV; 0.464 µg/mL in experiment [2]; > 15 µg/mL in experiment [3]; > 15 µg/mL in experiment [4]; 2.13 µg/mL in experiment [5]. In addition, the neutralization IC50 was > 15 µg/mL in experiment [6]; 0.284 µg/mL in experiment [7]; > 15 µg/mL in [8]; 0.129 µg/mL in [9]; > 15 µg/mL in experiment [10]; 1.35 µg/mL in experiment [11]. In addition, the neutralization IC50 was 0.265 µg/mL in experiment [12], > 15 µg/mL in experiment [13], 0.116 µg/mL in experiment [14] and 0.081 µg/mL in [15].

B9: γ46κ18 (antibody, V domains shown)
VH: B1 VH with S45G, I68L, P83S, L89V, S105Y, R107K, M117V
VL: B1 VL
Regarding B9, the neutralization IC50 in experiment [1] was 4.2 µg/mL; with Env of MuLV it was > 15 µg/mL; in experiment [2], > 15 µg/mL; in experiment [3], > 15 µg/mL; in experiment [4], > 15 µg/mL; in experiment [5], > 15 µg/mL. The neutralization IC50 in experiment [6] was > 15 µg/mL; in experiment [7] it was 4.16 µg/mL; in experiment [8], > 15 µg/mL; in [9], 2.99 µg/mL; in experiment [10], > 15 µg/mL; in [11] it was 4.1 µg/mL. The neutralization IC50 in [12] is 2.36 µg/mL; in [13], > 15 µg/mL; in experiment [14] it was > 15 µg/mL; in experiment [15], 2.1 µg/mL.

B10: γ22κ18 (antibody, V domains shown)
VH: B1 VH with I68L, S77P, P83S, S105Y, R107K
VL: B1 VL
For the molecule B10, the neutralization IC50 in [1] is 1.58 µg/mL; with Env of MuLV, > 30 µg/mL; in experiment [2] it was > 15 µg/mL; in experiment [3], > 15 µg/mL; in [4], > 15 µg/mL; in [5] it was > 15 µg/mL. The neutralization IC50 in experiment [6] was > 15 µg/mL; in experiment [7], 26 µg/mL; in [8] it was > 15 µg/mL; in [9] it was 13.3 µg/mL; in experiment [10] it was > 15 µg/mL; in [11], 7.31 µg/mL. Moreover, the neutralization IC50 in experiment [12] was 8.23 µg/mL; in experiment [13], > 15 µg/mL; in experiment [14] it was > 15 µg/mL; in experiment [15], > 15 µg/mL.
